The test system of one assay is mTORC1. Nature of the assay: Phosphoprotein immunoblots of LAM-621 cells overexpressing CIB2, mTORC1 targets. In kind it is cell-based, human. The following applies: LAM-621 cells overexpressing increasing amounts of CIB2. On the technique in general: A western blot detects proteins with antibodies after separation by electrophoresis.
Assay [1] has as its target T1, Raptor (Homo sapiens, UniProt Q8N122). Nature of the assay: Co-immunoprecipitation of Raptor and CIB2. In kind it is binding. On the set-up: HA (N); mCherry (N); host or cells: HEK293. An excerpt:
(§1) FIG. 14. […] Arrowheads indicate filopodia tip accumulation of hCIB2-eGFP, * indicates no accumulation of indicted constructs in the red channel. c. Representative confocal images (top panel) showing CIB2 (green) interaction with Rheb (red) and Raptor (red) using NanoTRAP assay. […] Arrowheads indicate filopodia tip accumulation of indicated constructs, * indicates no accumulation of indicted construct in the red or far-red channel. Scale bar: 10 μm. d. Quantification for nanoTRAP assay for images shown above. *** p<0.001 by one-way ANOVA. e, Co-IP experiments show interaction between Raptor and CIB2.
(§2) To reveal the molecular mechanism of CIB2-mediated mTORC1 modulation, we focused on the TSC-Rheb-mTORC1 axis. We performed an interaction screen of specific proteins including TSC1, TSC2, mTORC1-specific subunit Raptor, mTOR kinase, and Rheb. We used a recently-published quantitative interaction assay known as nanoscale pulldown 2.0 (NanoSPD), in which eGFP-nanobody tag fused to the myosin-HMM domain (nanoTRAP) preferentially migrates to the filopodia (Bird et al., Molecular Biology of the Cell 28, 463-475 (2017)). CIB2-eGFP (bait) migrated efficiently to filopodia in COS-7 cells only in the presence of the nanoTRAP. […] Many downstream and upstream targets of mTORC1 regulate its activity via binding to the mTORC1-specific subunit Raptor. […]

For a further assay, the target named is Rheb (Homo sapiens, UniProt Q15382). Nature of the assay: NanoSPD (nanoTRAP) interaction assay in COS-7 cells, Rheb. The class given is binding. On the set-up: host or cells: COS-7. The following applies: filopodia tip co-accumulation.
Rheb, sequence (Q15382 whole entry): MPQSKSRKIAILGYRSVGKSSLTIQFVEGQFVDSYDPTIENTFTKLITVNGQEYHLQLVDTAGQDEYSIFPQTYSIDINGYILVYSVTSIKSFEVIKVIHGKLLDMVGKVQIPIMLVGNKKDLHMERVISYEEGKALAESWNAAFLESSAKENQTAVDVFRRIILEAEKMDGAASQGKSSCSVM
Description: as §1, §2

In assay [2] the target is T1, Raptor. In words: NanoSPD (nanoTRAP) interaction assay in COS-7 cells, Raptor. The class given is binding. Also on record: HA (N); mCherry (N). The following applies: filopodia tip co-accumulation.
Description: as §1, §2

T1 sequence (Q8N122 whole entry): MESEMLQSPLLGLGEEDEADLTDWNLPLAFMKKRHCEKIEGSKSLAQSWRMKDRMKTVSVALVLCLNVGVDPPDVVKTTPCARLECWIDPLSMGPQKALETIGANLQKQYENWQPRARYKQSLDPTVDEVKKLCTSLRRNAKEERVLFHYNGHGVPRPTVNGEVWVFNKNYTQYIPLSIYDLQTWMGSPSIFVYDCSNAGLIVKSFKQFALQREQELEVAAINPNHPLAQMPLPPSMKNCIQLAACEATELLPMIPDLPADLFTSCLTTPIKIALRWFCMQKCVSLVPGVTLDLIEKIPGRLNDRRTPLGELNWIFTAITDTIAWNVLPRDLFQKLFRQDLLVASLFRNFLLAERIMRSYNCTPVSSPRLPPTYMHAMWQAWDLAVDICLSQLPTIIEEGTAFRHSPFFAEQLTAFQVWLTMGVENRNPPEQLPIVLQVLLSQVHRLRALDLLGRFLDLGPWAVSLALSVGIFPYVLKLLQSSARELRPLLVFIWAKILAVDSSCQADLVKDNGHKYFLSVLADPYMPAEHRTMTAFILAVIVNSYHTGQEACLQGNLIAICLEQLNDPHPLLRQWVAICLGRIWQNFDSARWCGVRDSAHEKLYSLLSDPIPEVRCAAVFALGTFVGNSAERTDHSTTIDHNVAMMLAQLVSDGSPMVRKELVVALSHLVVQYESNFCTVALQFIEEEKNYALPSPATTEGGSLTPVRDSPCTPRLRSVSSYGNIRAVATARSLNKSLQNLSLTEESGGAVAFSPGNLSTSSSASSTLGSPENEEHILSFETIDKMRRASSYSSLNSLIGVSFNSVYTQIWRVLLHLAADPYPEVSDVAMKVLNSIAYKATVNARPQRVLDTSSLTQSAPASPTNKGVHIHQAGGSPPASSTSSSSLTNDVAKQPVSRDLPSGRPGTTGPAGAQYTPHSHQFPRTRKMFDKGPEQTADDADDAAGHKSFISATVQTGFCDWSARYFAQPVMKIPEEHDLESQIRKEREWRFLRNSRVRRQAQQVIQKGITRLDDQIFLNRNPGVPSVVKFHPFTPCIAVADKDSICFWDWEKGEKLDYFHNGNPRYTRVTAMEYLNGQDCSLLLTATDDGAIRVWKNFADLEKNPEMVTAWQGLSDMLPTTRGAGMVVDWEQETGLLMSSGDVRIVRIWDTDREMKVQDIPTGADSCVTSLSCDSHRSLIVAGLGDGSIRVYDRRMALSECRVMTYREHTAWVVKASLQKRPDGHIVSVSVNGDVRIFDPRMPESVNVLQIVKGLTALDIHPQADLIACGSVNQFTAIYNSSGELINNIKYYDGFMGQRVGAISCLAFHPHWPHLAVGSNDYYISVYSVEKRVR

B1: CIB2: calcium and integrin binding protein 2, over-expressed in cells from plasmid constructs; SEQ ID NO:1 (human), SEQ ID NO:2 (mouse) (protein)
chain: MGNKQTIFTEEQLDNYQDCTFFNKKDILKLHARFYELAPNLVPMDYRKSPIVHVPMSLIIQMPELRENPFKERIVEAFSEDGEGNLTFNDFVDMFSVLCESAPRELKANYAFKIYDFNTDNFICKEDLEMTLARLTKSELEEDEVVLVCDKVIEEADLDGDGKLGFADFEDMIAKAPDFLSTFHIRI
modifications: left off: large carriers
Take B1: in the assay on mTORC1, the “Phosphorylated 4E-BP-1” value was “decreasing amounts” and the “Phosphorylated ULK1” value is given as “decreasing amounts”. Also, in the assay with Raptor [1], the “Interaction with Raptor (co-IP)” value was “confirmed the interaction”. In the assay with Rheb, the “Interaction with Rheb (NanoSPD)” value is “interacts with Rheb”. The “Interaction with Raptor (NanoSPD)” value with Raptor [2] is “interacts with CIB2”.

For the origin of these results see patent US12661385B2, “Modulation of mTORCI activity and autophagy via CIB2-RHEB interaction” (University of Maryland, Baltimore, priority 2018, dated 2026).
